Laboratory results: PMC4266991

Target: SUFU (UniProt Q9UMX1)
Assay: co-immunoprecipitation, immunoblot
Conditions: reference: wild-type GLI2, CCL21; sites S149

Which “binding against the reference” value does the source give for “GLI2 (from UniProt P10070) GLI2 S149A, CCL21” here?
Its value is “stronger”.
